Assay results published in the nanobody polyreactivity screen of Harvey et al. (2022).

Test: yeast display, Sf9 membrane polyspecificity reagent, FACS + sequencing; frameworks hold sequencing errors
Method in brief: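 After 36–48 hours of galactose induction, yeast (Saccharomyces cerevisiae BJ5465) displaying a synthetic nanobody library were stained at 4 °C for 1 hour with 10% biotinylated, detergent-solubilized Sf9 membrane reagent. Streptavidin microbeads enriched the stained cells before FACS sorting into low and high (top ~1%) gates on anti-HA and streptavidin fluorescence. Each clone's polyreactivity label reflects its gate of origin.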

Sequence | polyreactivity (PSR sort gate)
QVQLVESGGGLVQAGGSLRLSCPASGSIFQYYAMGWYRQAPGKERELVAAISSGGRTNYADSVKGRFTISRDNAKNTVYLQMNSLKPEATAVYYCAAARYYYQVYRWEYDYWGQGTQVTVSS | high polyreactivity
QVQLVESGGGLVQAGGSLRLSCPASGSIFRGYGMGWSRQAPGKERELVAAMSSSGGTYYADSVKGRFTISRDNAKKTVYLQMNSLKPEDTAVYYCNARVRTQQRWVDYWGQGTQVTVSS | high polyreactivity
QVQLVESGGGLVQAGGSLRLSCPASGSIIYTNDMGWYRQEPGKEREMVAAISYGGTTTYADSVKGRFTISRDNAKNTVYLQMNSLKPEDTAVYYCNADWLYYGYWGYGHIWYDFWGQGTQVTVSS | low polyreactivity
QVQLVESGGGLVQAGGSLRLSCPASGSTIPVNAMVWYRQAPGKERELVAAIRSSTGRTYYADSVKGRFTTSRDNAKNTVYLQMNSLKPEDTAVYYCAADYRYNRGITSNKDYDYWGQGTQVTVSS | low polyreactivity
QVQLVESGGGLVQAGGSLRLSCPATGFTFSVYVMAWYRLAPGKERELVAAISSGGDTTYADSVKGRFTISRDNAKNTVYLQMNSLKPEDTAVYYCAAYRVILYYLYDYWGQGTQVTVSS | low polyreactivity
QVQLVESGGGLVQAGGSLRLSCPAYGSIFEGHGMGWYRQAPGKEREMVAAITFRSGSTYYADSVKWRFTISRDNAKNTVYLQINSLKPDDTAVYYCAADEYYQVSAYDYWGQGTQVTVSS | low polyreactivity
QVQLVESGGGLVQAGGSLRLSCPAYGSIFIGNAMGWYRQAPGKERELVAVISKGGGRTYYADSVKGRFTISRDNAKNTVYLQMNSLKPEDTAVYYCNTRNPDSGDYWGQGTQVTVSS | high polyreactivity
QVQLVESGGGLVQAGGSLRLSCPDSGRIFFLYAMGWYRQAPGKERELVAAITKSGGSTYADSVKGRFTISRDNAKNTVFLQMNSLIPEDTAVYYCAADLFTDLYDSWGQGTQVTVSS | low polyreactivity
QVQLVESGGGLVQAGGSLRLSCSASGFIFSRYVMGWYRKAPGKEREFVAVISYRGGSTYYADSVKGRFTFSRDNAKNTVYLQMNSLKPEDTAVYYCNADTIPDGEDRYDYWGQGTQVTVSS | low polyreactivity
QVQLVESGGGLVQAGGSLRLSCSASGFTFNYNAMGWYRQAPGKERELVASITRSGGRTYYADSVKGRFTISRDNAKITVYLQMNSLKPEDTAVYYCAAEVWYSLSYRVYGGYDFWGQGTQVTVSS | high polyreactivity
QVQLVESGGGLVQAGGSLRLSCSASGIIFVRNAMGWYRQAPGKERELVAAITWRGSTYYADSVKGRFTISRDNAKNTVYLQMNSLKPEDTAVYYCAAVKPHYTSFRDYYWGQGTQVTVSS | high polyreactivity
QVQLVESGGGLVQAGGSLRLSCSASGLIFGNYAMGWYRQAPGKERELVAAITSTGITYYADSVKGRFTISRDNAKNTVYLQMNSLKPEDTAVYYCAAASRFHPDRGGYWGQGTQVTVSS | low polyreactivity
QVQLVESGGGLVQAGGSLRLSCSASGLIFGNYGMGWYRQAPGKERELVAVITDDDSTTYADSVKGRFTISRDNAKNTFYLQMNSLKPEDTAVYYCNADNLLGRFDSWGQGTLVTVSS | low polyreactivity
QVQLVESGGGLVQAGGSLRLSCSASGLIFSTYAMGWYRQAPGKVRELVAAISGTGSTYYADSVKGRFTISRDNAKNTVYLQMNRLKPEDTSVYYCAAGATLWLLGLKMGYWGQGTQVTVSS | low polyreactivity
QVQLVESGGGLVQAGGSLRLSCSASGLIYYYYTMGWYRPPPGKERELVAVISSSGGSTYYADSVKGRFTISRDNAKNTVYLQMNSLKPEDTAVYYCAAVYHFQYGAYDYWGQGTQGTVSS | high polyreactivity
QVQLVESGGGLVQAGGSLRLSCSASGLTFTKYAMGWYRQAPGKEREFVATITSGGSTNYADSVKGRFTISRDNAKNTVYLQMNSLKPEDTAVYYCNRDNYKWPYWEFDYWGQGTQVTVSS | high polyreactivity
